Measurements taken from patent publication US20190016816A1 (APTEVO RESEARCH AND DEVELOPMENT, published 2019).

Assays:
[1] = molecular target: T1, cynomolgus CD137 on cells (cynomolgus macaque, UniProt A9YYE7 24-254); test: flow cytometry, CD8 T cells gated from CD3-stimulated cynomolgus PBMC, biotinylated antibody + streptavidin-APC, exp 1, n=3 donors
T1 construct: whole, on cells; also called CHO-K1/cynomolgus CD137 cell line; cynomolgus monkey CD137 on CD3-stimulated primary CD8 T cells
Protocol: (§1) Following 48 h of incubation with or without CD3, human and cynomolgus PBMC were harvested, pooled, recounted and diluted in FACS buffer (PBS+0.5% BSA, 0.05% NaN₃) to a concentration of 5×10⁶ cells/mL. 50 μL (0.25×10⁶ cells) of cell solution was added to a 96-well FACS staining plate (Falcon #351190). Following 10 min of Fc-blocking in RT using Beriglobin (hIgG, 200 μg/mL), cells were washed in FACS buffer and then incubated for 1 h in 4° C. with 100 μL of the biotinylated ALG.APV-210 or negative control. […] Cells were analysed for ALG.APV-210 binding using flow cytometry by gating on viable, single cells expressing CD3 and CD8. MFI values (FMO subtracted) from 2 independent experiments as well as normalized pooled data from 2 experiments and EC₅₀-values were determined and plotted using GraphPad Prism 7, non-linear regression log (agonist) vs. normalized response—variable slope, n=6 donors/group.
(§2) In ELISA tests, the binding of biotinylated ALG.APV-210 to CD137 was similar to that of the non-biotinylated ALG.APV-210 (0.6 nM vs. 0.7 nM). The binding (EC₅₀) of the biotinylated ALG.APV-210 to its immunomodulatory target CD137 when expressed on activated primary human and cynomolgus CD8 T cells from CD3 stimulated PBMC was assessed and compared between the two species as well as to unstimulated cells. […]

human 5T4 on cells [2] = molecular target: T2, human 5T4 on cells (human, UniProt Q13641 32-420); test: flow cytometry, CT26-hu5T4^high cells, streptavidin-PE, normalized MFI of 2 pooled experiments
T2 construct: also called TPBG; hu5T4
T2 sequence: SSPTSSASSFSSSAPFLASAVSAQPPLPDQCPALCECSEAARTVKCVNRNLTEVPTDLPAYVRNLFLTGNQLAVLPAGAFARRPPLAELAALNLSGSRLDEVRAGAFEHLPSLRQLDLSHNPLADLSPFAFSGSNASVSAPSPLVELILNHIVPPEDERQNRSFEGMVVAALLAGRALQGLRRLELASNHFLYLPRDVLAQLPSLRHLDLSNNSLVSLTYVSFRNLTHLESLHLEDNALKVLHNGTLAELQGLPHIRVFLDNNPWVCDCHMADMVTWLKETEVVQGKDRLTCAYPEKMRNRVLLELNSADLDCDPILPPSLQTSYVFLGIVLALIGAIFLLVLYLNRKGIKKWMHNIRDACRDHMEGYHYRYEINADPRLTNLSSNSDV
Protocol: (§3) Prior to the FACS staining, all cell lines were characterized for their 5T4 expression levels using a receptor density kit (Quantum Simply Cellular, anti-human IgG, Bangs Laboratories, Inc). Adherent cell lines were cultured according to their supplier's instructions and were harvested from their cell culture flasks using Trypsin/EDTA, counted in R10 medium in a Burker chamber, and diluted in FACS buffer (PBS+0.5% BSA, 0.05% NaN₃) to a concentration of 4×10⁶ cells/mL. 50 μL (0.20×10⁶) of cell solution was added to a 96-well FACS staining plate (Falcon #351190). Cells were incubated for 20 min in 4° C. with 50 μL of the biotinylated ALG.APV-210 (2× final concentration). The antibodies were added in a serial dilution starting at 20 μg/mL titrating down in a 12 step ½ dilution down to 0.010 μg/mL. Following 2× washing with FACS buffer, cells were incubated for 30 min in 4° C. with 100 μL of a secondary antibody (streptavidin-PE, BD #554061, diluted 1/500). […] Cells were analysed for ALG.APV-210 binding using flow cytometry (FACSVerse) by gating on single cells. MFI values (secondary antibody only subtracted) from 1 out of 2 independent experiments, as well as normalized data and EC₅₀-values of pooled data from 2 experiments were determined and plotted using GraphPad Prism 7, non-linear regression log (agonist) vs. normalized response—variable slope.

human CD137 on cells = molecular target: T3, human CD137 on cells (human, UniProt Q07011 24-255); test: flow cytometry, CD8 T cells gated from CD3-stimulated human PBMC, biotinylated antibody + streptavidin-APC, exp 1, n=3 donors
T3 construct: also called 4-1BB; TNFRSF9 (CHO-K1/human CD137 cells)
Protocol: as §1, §2

human 5T4 on cells [3] = molecular target: T2, human 5T4 on cells; test: flow cytometry, CT26-hu5T4^int cells, streptavidin-PE, normalized MFI of 2 pooled experiments
Protocol: as §3

human 5T4 on cells [4] = molecular target: T2, human 5T4 on cells; test: flow cytometry, B16-hu5T4 cells, streptavidin-PE, normalized MFI of 2 pooled experiments
Protocol: as §3

T3 sequence (Q07011 24-255 limits assumed): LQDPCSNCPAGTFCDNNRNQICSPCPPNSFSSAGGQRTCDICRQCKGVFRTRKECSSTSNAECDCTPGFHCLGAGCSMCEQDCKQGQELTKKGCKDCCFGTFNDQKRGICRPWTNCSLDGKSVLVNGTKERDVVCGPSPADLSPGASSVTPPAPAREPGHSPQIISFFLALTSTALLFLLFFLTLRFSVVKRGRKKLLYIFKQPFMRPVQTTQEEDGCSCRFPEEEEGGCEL
T1 sequence (A9YYE7 entry or part of it): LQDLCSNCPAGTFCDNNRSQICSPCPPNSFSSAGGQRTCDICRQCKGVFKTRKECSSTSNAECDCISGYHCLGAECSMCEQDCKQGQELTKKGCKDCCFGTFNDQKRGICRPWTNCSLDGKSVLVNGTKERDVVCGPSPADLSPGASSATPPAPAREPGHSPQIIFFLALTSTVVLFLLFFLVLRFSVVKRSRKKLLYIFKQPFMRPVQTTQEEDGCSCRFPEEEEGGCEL

B1: biotinylated ALG.APV-210 (bispecific antibody)
chain: EVQLLESGGGLVQPGGSLRLSCAASGFTFSHGSMYWVRQAPGKGLEWVSSISSGSGSTYYADSVKGRFTISHDNSKNTLYLQMNSLRAEDTAVYYCARSSYYGSYYSIDYWGQGTLVTVSSGGGGSGGGGSGGGGSGGGGSDIQMTQSPSSLSASVGDRVTITCRASQSISSYLNWYQQKPGKAPKLLIYAASSLQSGVPSRFSGSGSGTDFTLTISSLQPEDFATYYCQQYYDNLPTFGQGTKLEIKEPKSSDKTHTCPPCPAPEAAGAPSVFLFPPKPKDTLMISRTPEVTCVVVDVSHEDPEVKFNWYVDGVEVHNAKTKPREEQYNSTYRVVSVLTVLHQDWLNGKEYKCAVSNKALPAPIEKTISKAKGQPREPQVYTLPPSRDELTKNQVSLTCLVKGFYPSDIAVEWESNGQPENNYKTTPPVLDSDGSFFLYSKLTVDKSRWQQGNVFSCSVMHEALHNHYTQKSLSLSPGSGGGGSGGGGSGGGGSPSEVQLLESGGGLVQPGGSLRLSCAASGFTFSSYAMSWVRQAPGKCLEWVSAISGSGGSTYYADSVKGRFTISRDNSKNTLYLQMNSLRAEDTAVYYCARYYGGYYSAWMDYWGQGTLVTVSSGGGGSGGGGSGGGGSGGGGSDIQMTQSPSSLSASVGDRVTITCRASQSISSFLNWYQQKPGKAPKLLIYAASSLQSGVPSRFSGSGSGTDFTLTISSLQPEDSATYYCQQTYGYLHTFGCGTKLEIKR
notes: also called ALG.APV-210 (biotinylated for FACS detection)
For B1, the “EC50 (read off the curve)” value [1] was ~0.3 nM, the EC50 (human 5T4 on cells [2]) was 20 nM and the “EC50 (read off the curve)” value (human CD137 on cells) was ~0.3 nM. For the same binder, the EC50 (human 5T4 on cells [3]) was 12 nM and the EC50 (human 5T4 on cells [4]) was 14 nM.
